Assay results reported in article PMC3702404 (Nature structural & molecular biology, 2013).
“And” between values parts separate entries of the source, which are not always exact repeats. Equal entries are not always repeated. Where two headings read alike, the source gives them in different places.

B2: PpsR (full-length) (natural protein, Rhodobacter sphaeroides, UniProt Q3J179 1-464, looked up)
chain: MLAGGSLPSLAPDLVRDLIATAADISLLVSQEGVVREVMANPHHPSFGQLSEWEGRPLEEVLTAESVAKFRLRSEGLEPGRGSVAVELNHIDPRSFEFPIRYILHRLPADRSILMLGRDLRPIAEVQQQLVAAQLAMERDYETQREMETRYRVVLDVSRDPMVLVSMSTGRIVDLNSAAGLLLGGVRQDLLGAAIAQEFEGRRRGEFMETMTNLAATESAAPVEVLARRSQKRLLVVPRVFRAAGERLLLCQIDPADATQPVGDELSENLARLYHEGVDGIVFSDADGTIRGANEAFLNMTDSSSLAAIRGRSIADFLARGSVDLRVLIDSVRRTGQLRLYATRLTTDFAGQIAAEISATWLDDRERPLLVLVVRDTSRADTMRRPVPATGVIDEPARNVMELVGNSTLKDIVAETTDVVEKMCIETALELTRNNRVAAAEMLSLSRQSLYVKLRKFGLLNKDE

What was measured:
crystal structure = target: the molecule itself; assay: crystal structure
MST = target: the molecule itself; assay: MST
PpsR (full-length) [1] = target: B2; assay: MST
PpsR (full-length) [2] = target: B2; assay: native gel or EMSA
PpsR (full-length) [3] = target: B2; assay: HDX-MS
PpsR (full-length) [4] = target: B2; assay: native gel or EMSA; remark: listed apart in the source

B1: PpsR ΔHTH (domain or fragment, Rhodobacter sphaeroides)
chain: LAGGSLPSLAPDLVRDLIATAADISLLVSQEGVVREVMANPHHPSFGQLSEWEGRPLEEVLTAESVAKFRLRSEGLEPGRGSVAVELNHIDPRSFEFPIRYILHRLPADRSILMLGRDLRPIAEVQQQLVAAQLAMERDYETQREMETRYRVVLDVSRDPMVLVSMSTGRIVDLNSAAGLLLGGVRQDLLGAAIAQEFEGRRRGEFMETMTNLAATESAAPVEVLARRSQKRLLVVPRVFRAAGERLLLCQIDPADATQPVGDELSENLARLYHEGVDGIVFSDADGTIRGANEAFLNMTDSSSLAAIRGRSIADFLARGSVDLRVLIDSVRRTGQLRLYATRLTTDFAGQIAAEISATWLDDRERPLLVLVVRDTSR
For B1, the “stoichiometry N” value (crystal structure) was 4 and 8.

B2 showed a Kd (MST) of 0.9 µM.

B3: AppA Δ399 C20S (domain or fragment, Rhodobacter sphaeroides)
chain: HDLEADVTMTGSDLVSCSYRSLAAPDLTLRDLLDIVETSQAHNARAQLTGALFYSQGVFFQWLEGRPAAVAEVMTHIQRDRRHSNVEILAEEPIAKRRFAGWHMQLSCSEADMRSLGLAESRQIVTVGRSLVADNTNIFSFDRIAAVRRFLSDVCAARTLAPDTPVEADTFALYALTEAQAGRSGRAKAVARLSDLLSTDPLGRLTEVEELLRAHAPTAADFARLFEACAERLTRALAEDRISRMQVTLAYSALQMALRRIHHLPDPQKSVGAVLVAGVPGHKPILEAALAAEMLRAVGWSTSVVHPESVAALAARLKTSRTSTLVVAPSLLEGTEQEADTLRFVSALRARTDLPGLSILVGGRLAQLPPSKLKDSGADAGFAHLALLPAALARVA
Binder B3 has a Kd (PpsR (full-length) [1]) of 1.3 µM, an EC50 (PpsR (full-length) [2]) of 1.4 µM and a Kd (PpsR (full-length) [3]) of ~1.5 µM. The EC50 (PpsR (full-length) [4]) was 2.3 µM.
